Tests used:
[1] = target: T1, GST-AP2IV-4 (AP2 domain) (Toxoplasma gondii, UniProt S8FCP8 782-854); test: EMSA; 50 ng protein, 20 fmol probe; EMSA: 20 fmol probe, 50 ng protein, 6% PAGE, LightShift Chemiluminescent EMSA kit; buffer, salt, pH and temperature not stated; details: protein: recombinant; tags: GST (N-terminal, pGEX4T3); label: 5'-biotin; blunt
[2] = target: T1, GST-AP2IV-4 (AP2 domain); test: competition; 300x excess unlabeled against N1; EMSA: 20 fmol probe, 50 ng protein, 6% PAGE, LightShift Chemiluminescent EMSA kit; buffer, salt, pH and temperature not stated; details: protein: recombinant; tags: GST (N-terminal, pGEX4T3); label: none; blunt
[3] = target: T1, GST-AP2IV-4 (AP2 domain); test: competition; 300x excess unlabeled against N1; did not compete; EMSA: 20 fmol probe, 50 ng protein, 6% PAGE, LightShift Chemiluminescent EMSA kit; buffer, salt, pH and temperature not stated; details: protein: recombinant; tags: GST (N-terminal, pGEX4T3); label: none; blunt

B1: PBM motif validation probe (WT, 59 bp) (dsDNA)
DNA 1: TTTGTAATATACGCTCCACCGCGTGCACCCCCCTCGACATGCCCCCGTATTGCTGATCG
DNA 2: CGATCAGCAATACGGGGGCATGTCGAGGGGGGTGCACGCGGTGGAGCGTATATTACAAA
binding result [1]: binds

B2: PBM motif validation, unlabeled poly(dC) competitor (dsDNA)
DNA 1: B1 DNA 1
DNA 2: B1 DNA 2
binding result [2]: binds

B3: PBM scrambled cold competitor (60 bp) (dsDNA)
DNA 1: TACCCTGCCTCTTGTAGTAGTAACGTAAAAGAGGTAACGTGGTCAAATGCGATCAGAGAT
DNA 2: ATCTCTGATCGCATTTGACCACGTTACCTCTTTTACGTTACTACTACAAGAGGCAGGGTA
binding result [3]: no binding

Reference: article PMC5951591, “Transcriptional repression by ApiAP2 factors is central to chronic toxoplasmosis”
